T1: murine TFF3 (mTFF3) (mouse, UniProt Q62395 23-81)
T1 chain: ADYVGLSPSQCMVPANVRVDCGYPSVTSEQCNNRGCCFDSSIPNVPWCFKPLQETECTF

B1: murine CD147^ECD (mCD147^ECD) (domain or fragment)
chain: AAGTIQTSVQEVNSKTQLTCSLNSSGVDIVGHRWMRGGKVLQEDTLPDLHTKYIVDADDRSGEYSCIFLPEPVGRSEINVEGPPRIKVGKKSEHSSEGELAKLVCKSDASYPPITDWFWFKTSDTGEEEAITNSTEANGKYVVVSTPEKSQLTISNLDVNVDPGTYVCNATNAQGTTRETISLRVRSR

Tests used:
[1] = biological target: Trefoil factor 3 (TFF3), recombinant mature form (residues 22-80) (human); assay: SPR; Biacore T200; TFF peptides immobilised on a CM5 chip (10 mM sodium acetate pH 4.0); purified proteins as analytes at 30 µL/min, 2 min association; multiple cycle kinetics, 1:1 model
[2] = biological target: T1, murine TFF3 (mTFF3); assay: SPR

Molecule	Kd [1] [µM]	Kd [2] [µM]
extracellular domain of CD147 (CD147^ECD) (domain or fragment)	2.03	
B1		2.51

Reference: paper PMC8280106 (2021)
